We go through two molecules from patent EP3515493A1 (dated 2019).

The target of assay [1] is HLA-DR, human (human). Description: Scatchard plot analysis, avidity constant on tonsil lymphocytes.
Assay [2] addresses HLA-DR, human (human). As to the kind of experiment: Scatchard plot analysis, avidity constant on tumor cell line (ARH-77 myeloma cells).
In assay [3] the target is HLA-DR, human (human). As to the kind of experiment: Scatchard analysis, normal B cells (Table 11: tonsil lymphocytes) compared with ARH-77 tumor cells.
Assay [4] addresses HLA-DR, human (human). As to the kind of experiment: Scatchard plot analysis, avidity constant on tumor cell line (Raji cells).
The target in assay [5] is HLA-DR, human (human). As to the kind of experiment: Scatchard analysis, normal B cells (Table 11: tonsil lymphocytes) compared with Raji tumor cells.

B1: Lym-2 (antibody, V domains shown)
VH: EVQLEESGGGLVQPGGSMKLSCVASGFTFSNYWMNWVRQSPEKGLEWVAEIRFKSHNYATHFAESVKGRFTISRDDSKSSVYLQMNNLRAEDTGIYYCTRRIGNSDYDWWYFDVWGAGTSVTVSS
VL: DIVMTQSHKFMSTSVGDRVSVTCKASQNVGNNVAWYQQKPGQSPKVLIYSASYRYSGVPDRFTGSGSGTDFTLTISNVQSEDLAEYFCQQYNTYPFTFGSGTKLEIK
On to B1, for which the Ka in assay [1] was 1.23e+08 M⁻¹; in assay [2] it was 2.33e+08 M⁻¹. Moreover, the “fold decrease in binding affinity (normal B cells against tumor cells)” value in assay [3] was 2 fold.

B2: Lym-1 (antibody, V domains shown)
VH: QLKESGPGLVAPSQSLSITCTISGFSLTSYGVHWVRQPPGKGLEWLVVIWSDGSTTYNSALKSRLSISKDNSKSQVFLKMNSLQTDDTAIYYCASHYGSTLAFASWGHGTLVTVSA
VL: DIQMTQSPASLSASVGETVTIICRASVNIYSYLAWYQQKQGKSPQLLVYNAKILAEGVPSRFSGSGSGTQFSLKINSLQPEDFGSYYCQHHYGTFTFGSGTKLEIK
For the molecule B2, the Ka in assay [1] came to 8.8e+07 M⁻¹; in assay [4], 4.02e+08 M⁻¹. Also, the “fold decrease in binding affinity (normal B cells against tumor cells)” value in assay [5] is 4 fold.
